Substitutions are numbered along the chain they refer to. One block for each molecule: values may come before it.
How the values were obtained:
[1] = test system: human breast cancer cell lines, isolated from patient blood samples; assay: Growth of breast cancer cell cultures in presence of scFv; type: cell-based; settings: 2 μM scFv, 4 days after seeding
[2] = biological target: T1, activated integrin αvβ3 (Homo sapiens, UniProt P05106+P06756); assay: Flow cytometry, scFv binding to MDA-MB 435 variants and patient metastatic breast cancer cells
T1 construct: endogenous in cells; host or cells: MDA-MB 435 variants (Parent Combo, Bone, Lung) and patient blood-derived BMS cells; also β3-negative cells re-transfected with β3WT or β3D723R cDNA
T1 sequence (P06756 31-889 limits assumed): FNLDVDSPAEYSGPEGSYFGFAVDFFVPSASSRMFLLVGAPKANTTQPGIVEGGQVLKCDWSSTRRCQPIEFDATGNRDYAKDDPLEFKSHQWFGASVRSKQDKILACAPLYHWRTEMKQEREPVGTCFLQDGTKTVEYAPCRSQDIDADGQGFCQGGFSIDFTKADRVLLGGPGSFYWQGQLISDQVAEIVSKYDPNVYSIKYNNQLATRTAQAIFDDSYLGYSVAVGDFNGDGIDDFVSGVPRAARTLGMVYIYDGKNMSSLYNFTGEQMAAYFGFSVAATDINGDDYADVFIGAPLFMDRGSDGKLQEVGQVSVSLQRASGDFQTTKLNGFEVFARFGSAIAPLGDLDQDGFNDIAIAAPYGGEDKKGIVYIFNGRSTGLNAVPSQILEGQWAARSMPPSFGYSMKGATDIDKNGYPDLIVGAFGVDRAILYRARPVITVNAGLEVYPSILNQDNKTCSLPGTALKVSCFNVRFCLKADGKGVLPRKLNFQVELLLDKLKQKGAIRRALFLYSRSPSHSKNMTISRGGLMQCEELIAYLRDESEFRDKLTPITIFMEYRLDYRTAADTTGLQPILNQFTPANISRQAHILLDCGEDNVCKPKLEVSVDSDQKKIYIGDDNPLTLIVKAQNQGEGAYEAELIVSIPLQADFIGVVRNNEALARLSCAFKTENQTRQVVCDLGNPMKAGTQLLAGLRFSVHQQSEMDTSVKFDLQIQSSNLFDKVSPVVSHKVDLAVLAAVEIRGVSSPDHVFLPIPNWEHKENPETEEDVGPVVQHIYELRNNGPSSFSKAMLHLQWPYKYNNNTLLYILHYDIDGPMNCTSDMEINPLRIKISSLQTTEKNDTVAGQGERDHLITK
T1 sequence (P06756 891-1048 limits assumed): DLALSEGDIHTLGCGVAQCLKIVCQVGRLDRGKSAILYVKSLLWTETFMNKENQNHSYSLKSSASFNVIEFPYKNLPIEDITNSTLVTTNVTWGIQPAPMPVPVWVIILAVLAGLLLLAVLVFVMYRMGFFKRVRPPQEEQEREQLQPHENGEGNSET
T1 sequence (P05106 27-788): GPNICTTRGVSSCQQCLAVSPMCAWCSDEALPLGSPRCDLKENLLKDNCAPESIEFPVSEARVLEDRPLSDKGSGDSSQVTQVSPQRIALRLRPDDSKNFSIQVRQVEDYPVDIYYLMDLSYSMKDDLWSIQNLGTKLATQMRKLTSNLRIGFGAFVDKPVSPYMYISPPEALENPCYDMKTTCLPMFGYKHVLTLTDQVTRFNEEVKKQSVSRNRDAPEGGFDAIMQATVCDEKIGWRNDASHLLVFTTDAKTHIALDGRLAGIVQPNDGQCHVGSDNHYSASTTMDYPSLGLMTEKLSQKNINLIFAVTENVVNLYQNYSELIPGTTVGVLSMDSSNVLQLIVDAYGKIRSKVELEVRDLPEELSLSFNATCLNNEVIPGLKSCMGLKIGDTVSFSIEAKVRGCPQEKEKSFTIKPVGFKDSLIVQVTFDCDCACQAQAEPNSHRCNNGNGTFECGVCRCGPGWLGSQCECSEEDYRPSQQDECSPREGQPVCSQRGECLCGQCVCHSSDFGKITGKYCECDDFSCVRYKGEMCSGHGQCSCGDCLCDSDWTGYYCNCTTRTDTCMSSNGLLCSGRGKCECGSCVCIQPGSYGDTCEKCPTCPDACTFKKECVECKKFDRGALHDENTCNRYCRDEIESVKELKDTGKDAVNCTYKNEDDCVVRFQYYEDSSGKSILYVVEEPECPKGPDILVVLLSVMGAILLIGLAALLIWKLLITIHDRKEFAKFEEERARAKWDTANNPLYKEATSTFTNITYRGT
Method: FIGS. 1A, 1B, 1C. Patient derived scFvs Bc-12 and Bc-15 recognize tumor cell integrin αvβ3 in a cation and activation dependent manner. Flow cytometric analyses in TBS with or without 1 mM Ca^2+, 1 mM Mg^2+, or 0.2 mM Mn^2+ as indicated. Binding of soluble scFv detected after incubation with anti-Flag M2 murine mAb followed by FITC-anti mouse F(ab′)2. (A) scFv binding to human melanoma cells (M21: αvβ3 plus other αv integrins) (M21-LIIb: αIIbβ3, no αv integrins) or lung adenocarcinoma cells (UCLA-P3: αv integrins, no β3 integrin). (B) scFv binding to M21 melanoma cells. (C) scFv binding to variants of MDA-MB 435 human breast cancer cells that lack (β^3−) or express αvβ3 either in a non-activated (β3WT, ParentCo) or activated form (β3D723R, Bone, Lung, and BMS metastatic cancer cells isolated from breast cancer patient blood).
FIGS. 2A, 2B, 2C, 2D. Translation of scFv DNA sequence analyses. (A) Consensus amino acid sequence (SEQ ID NO: 9) of Bc-12 (SEQ ID NO: 7) and Bc-15 (SEQ ID NO: 8) (specific for activated αvβ3) compared to Bc-20 (specific for αv) (SEQ ID NO: 10). (B) scFv binding to BMS human breast cancer cells by flow cytometry, indicating loss of Bc-12 and Bc-15 binding when CDR-H3 RGD is mutated to RGE (Mut-12 and Mut-15). […] (C) cDNA sequences for scFv Bc-12 (SEQ ID NO: 1) and scFv Bc-15 (SEQ ID NO: 3). The cDNA encoding scFv Bc-12 has an ATCC accession number PTA-6303, date of deposit: Nov. 12, 2004. The cDNA encoding scFv Bc-15 has an ATCC accession number PTA-6304, date of deposit: Nov. 12, 2004. (D) cDNA sequences for scFv Mut-12 (SEQ ID NO: 5) and scFv Mut-15 (SEQ ID NO: 6). scFv Mut-12 is the RGE containing mutant version of scFv Bc-12. scFv Mut-15 is the RGE containing mutant version of scFv Bc-15.
Flow cytometry. scFv binding to human tumor cells was analyzed by flow cytometry, initially with cloned scFv phage and then with purified scFv protein. Per sample, 2×10^5 tumor cells were blocked with goat serum and incubated either with scFv phage (2-5×10^10) (1 h at RT) followed by mouse anti-M13 mAb (Serotec) (30 min on ice) and goat FITC-anti mouse (Pierce) (30 min on ice), or with purified scFv (1.25 to 40 μg/ml, routinely 10 to 15 μg/ml) (45 min on ice), followed by mouse anti-FLAG mAb M2 (Sigma) (30 min on ice) and goat FITC-anti mouse. Binding/washing buffer was TBS with or without divalent cations (1 mM Ca^2+, 1 mM Mg^2+, 0.2 mM Mn^2+). Alternatively, tumor cells were washed in 10 ml of plasma (prepared freshly from human blood anticoagulated with 50 nM D-Phe-D-Pro-D-arginyl chloromethyl ketone, PPACK, Felding-Habermann et al., J. Biol. Chem. 271: 5892-5900, 1996), resuspended in plasma and then incubated sequentially, without washing, with purified scFv (45 min on ice), followed by anti-FLAG M2 (30 min on ice) and FITC-anti mouse (30 min on ice). All samples were counter stained with propidium iodide (PI) and analyzed on a Becton-Dickinson FACScan, with live gate set to exclude PI positive cells.
To test this further, the effects of cation combinations on Bc-12 and Bc-15 binding were examined. […] Smith, Methods Cell Biol. 69: 247-259, 2002; Hughes et al., J. Biol. Chem. 271: 6571-6574, 1996. To confirm that scFv Bc-12 and Bc-15 selectively recognize αvβ3 in its activated form, binding of these antibodies to in vitro generated and in vivo selected variants of the MDA-MB 435 breast cancer cell model was tested. […] In contrast, Bc-12 and Bc-15 were able to bind an MDA-MB 435 variant expressing constitutively activated mutant αvβ3D723R, without exogenous stimulation with Mn^2+. […] Importantly, scFvs Bc-12 and Bc-15 recognized in vivo selected MDA-MB 435 variants from bone and lung metastases, as well as metastatic cells isolated from breast cancer patient blood samples (FIG. 1C). These cells express αvβ3 in a constitutively activated form. Felding-Habermann et al., Proc. Natl. Acad. Sci. U.S.A 98: 1853-1858, 2001; Rolli et al., Proc. Natl. Acad. Sci. U.S.A 100: 9482-9487, 2003.

recognition of in vivo selected MDA-MB 435 variants from bone and lung metastases ([2]; constitutively activated αvβ3): recognized
recognition of metastatic cells isolated from breast cancer patient blood samples ([2]; constitutively activated αvβ3): recognized
binding to MDA-MB 435 Parent Combo cells ([2]; non-activated αvβ3): same Mn^2+ dependence
binding to β3 wild type expressing MDA-MB 435 cells ([2]; β3WT, non-activated αvβ3, without Mn^2+): failed to bind
binding to β3 wild type expressing MDA-MB 435 cells with Mn2+ ([2]; β3WT, with Mn^2+): recognized when activated with Mn^2+
B1: Bc-12: patient derived human scFv antibody against activated αvβ3 with RGD motif in CDR-H3; cDNA ATCC PTA-6303 (protein)
scFv: MAQVQLVQSGAEVKKPGASVKVSCKASGYTFSNYGITWVRQAPGQGLEWMGWINNGNTHYAQKFQGRVTMTTDTSTSTAYMELRSLRSDDTAVYYCARDPRGDDEPYWGQGTLVTVSSGGGGSGGGGSGGGGSEIVLTQSPLSLPVTLGQPASISCRSSQNLVYSDGNTYLSWFQQRPGQSPRRLIYKVSNRDSGVPDRFSGSGSGTDFTLKISRVEAEDIGVYYCMQGTHWPPRTFGQGTKVEIKRGLGGLVDYKDDDDK
growth of breast cancer cell lines [1]: retarded

binding of RGE mutated scFv to human breast cancer cells ([2]; BMS cells, compared with parent RGD scFv): strongly reduced
B2: Mut-12: RGE containing mutant version of scFv Bc-12 (protein)
chain: B1 scFv with D103E
growth of breast cancer cell lines [1]: no effect

Source: patent publication US7271245B2, “Methods and compositions for inhibition of metastasis” (The Scripps Research Institute, priority 2004, dated 2007)
